Consider five molecules from US20100209939A1.

The target in experiment [1] is human BNP(1-32), synthetic peptide (Sigma-Aldrich #B-5900) (human). The experiment is described as follows: sandwich ELISA, L21016 capture; BNP(1-32) 156.25 pg/ml. A general note: An ELISA detects its analyte on a solid surface through an enzyme-linked reagent.
For experiment [2] the target is unchanged. Nature of the experiment: sandwich ELISA, L21016 capture; BNP(1-32) 5,000 pg/ml.
In experiment [3] the target is human proBNP(1-108), recombinant protein produced in E. coli (HyTest), non-glycosylated (human) (UniProt P16860). Nature of the experiment: sandwich ELISA, hinge 76 capture, HRP-mAb; proBNP(1-108) 1,250 pg/ml.
For experiment [4], the target named is human BNP(1-32), synthetic peptide (Sigma-Aldrich #B-5900) (human). Nature of the experiment: sandwich ELISA, L21016 capture; BNP(1-32) 1,250 pg/ml.
For experiment [5] the target is unchanged. The experiment is described as follows: sandwich ELISA, L21016 capture; BNP(1-32) 0 pg/ml (blank).
For experiment [6], the target named is human proBNP(1-108), recombinant protein produced in E. coli (HyTest), non-glycosylated (human) (UniProt P16860). The experiment is described as follows: sandwich ELISA, hinge 76 capture, HRP-mAb; proBNP(1-108) 5,000 pg/ml.
The target in experiment [7] is human BNP(1-32), synthetic peptide (Sigma-Aldrich #B-5900) (human). The experiment is described as follows: sandwich ELISA, L21016 capture; BNP(1-32) 78 pg/ml.
For experiment [8], the target named is human proBNP(1-108), recombinant protein produced in E. coli (HyTest), non-glycosylated (human) (UniProt P16860). The experiment is described as follows: sandwich ELISA, hinge 76 capture, HRP-mAb; proBNP(1-108) 39 pg/ml.
Experiment [9] has the same target. The experiment is described as follows: sandwich ELISA, hinge 76 capture, HRP-mAb; proBNP(1-108) 20 pg/ml.
Experiment [10] concerns the target human BNP(1-32), synthetic peptide (Sigma-Aldrich #B-5900) (human). Nature of the experiment: sandwich ELISA, L21016 capture; BNP(1-32) 20 pg/ml.
Experiment [11] concerns the target human proBNP(1-108), recombinant protein produced in E. coli (HyTest), non-glycosylated (human) (UniProt P16860). The experiment is described as follows: sandwich ELISA, hinge 76 capture, HRP-mAb; proBNP(1-108) 312.5 pg/ml.
Experiment [12] has the same target. The experiment is described as follows: sandwich ELISA, hinge 76 capture, HRP-mAb; proBNP(1-108) 2,500 pg/ml.
The target in experiment [13] is human BNP(1-32), synthetic peptide (Sigma-Aldrich #B-5900) (human). The experiment is described as follows: sandwich ELISA, L21016 capture; BNP(1-32) 625 pg/ml.
Experiment [14] concerns the target human proBNP(1-108), recombinant protein produced in E. coli (HyTest), non-glycosylated (human) (UniProt P16860). Nature of the experiment: sandwich ELISA, hinge 76 capture, HRP-mAb; proBNP(1-108) 156.25 pg/ml.
The target in experiment [15] is human BNP(1-32), synthetic peptide (Sigma-Aldrich #B-5900) (human). Nature of the experiment: sandwich ELISA, L21016 capture; BNP(1-32) 10,000 pg/ml.
Experiment [16] deals with human proBNP(1-108), recombinant protein produced in E. coli (HyTest), non-glycosylated (human) (UniProt P16860). The experiment is described as follows: sandwich ELISA, hinge 76 capture, HRP-mAb; proBNP(1-108) 10,000 pg/ml.
The target in experiment [17] is human BNP(1-32), synthetic peptide (Sigma-Aldrich #B-5900) (human). The experiment is described as follows: sandwich ELISA, L21016 capture; BNP(1-32) 2,500 pg/ml.
The target in experiment [18] is human proBNP(1-108), recombinant protein produced in E. coli (HyTest), non-glycosylated (human) (UniProt P16860). The experiment is described as follows: sandwich ELISA, hinge 76 capture, HRP-mAb; proBNP(1-108) 0 pg/ml (blank).
For experiment [19], the target named is human BNP(1-32), synthetic peptide (Sigma-Aldrich #B-5900) (human). Nature of the experiment: sandwich ELISA, L21016 capture; BNP(1-32) 312.5 pg/ml.
Experiment [20] addresses human proBNP(1-108), recombinant protein produced in E. coli (HyTest), non-glycosylated (human) (UniProt P16860). The experiment is described as follows: sandwich ELISA, hinge 76 capture, HRP-mAb; proBNP(1-108) 78 pg/ml.
Experiment [21] has as its target human BNP(1-32), synthetic peptide (Sigma-Aldrich #B-5900) (human). Nature of the experiment: sandwich ELISA, L21016 capture; BNP(1-32) 39 pg/ml.
Experiment [22] has as its target human proBNP(1-108), recombinant protein produced in E. coli (HyTest), non-glycosylated (human) (UniProt P16860). The experiment is described as follows: sandwich ELISA, hinge 76 capture, HRP-mAb; proBNP(1-108) 625 pg/ml.
Experiment [23] deals with human BNP(1-32), synthetic peptide (Sigma-Aldrich #B-5900) (human). Nature of the experiment: sandwich ELISA, L21016 capture, BNP(1-32) 5 ng/ml; 50B7 0.5 µg/ml alone, no 20G7.
Experiment [24] addresses glycosylated human proBNP(1-108), recombinant protein from HEK293 cells (HyTest) (human) (UniProt P16860). The experiment is described as follows: SPR ProteOn XPR36, mAb captured by anti-Fc, soluble antigen 13-200 nM.
In experiment [25] the target is human proBNP(1-108), recombinant protein produced in E. coli (HyTest), non-glycosylated (human) (UniProt P16860). Described as above.
Experiment [26] has as its target 24C5 monoclonal antibody (HyTest). Nature of the experiment: competition ELISA: BNP(1-32) immobilised at 0.5 µg/ml, 24C5 at 0.5 µg/ml mixed with the soluble peptide, anti-mouse IgG-peroxidase; % inhibition of the binding of 24C5 to BNP(1-32).

Sequence of human proBNP(1-108), recombinant protein produced in E. coli (HyTest), non-glycosylated (human) (P16860 27-134): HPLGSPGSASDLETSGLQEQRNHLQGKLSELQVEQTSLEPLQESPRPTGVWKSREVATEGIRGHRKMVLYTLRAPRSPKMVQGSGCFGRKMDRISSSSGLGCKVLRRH
Sequence of glycosylated human proBNP(1-108), recombinant protein from HEK293 cells (HyTest) (human) (P16860 27-134): as above
Sequence of human BNP(1-32), synthetic peptide (Sigma-Aldrich #B-5900) (human) (peptide, as listed by the source): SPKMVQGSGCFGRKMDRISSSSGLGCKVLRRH

Regarding 24C5 monoclonal antibody (HyTest), the OD 490 nm is 0.071 OD in [1]; 0.068 OD in experiment [2]; 0.056 OD in [4]; 0.071 OD in experiment [5]; 0.052 OD in experiment [7]; 0.068 OD in [10]. Besides, the OD 490 nm in experiment [13] turned out to be 0.059 OD; in experiment [15], 0.077 OD; in [17] it was 0.067 OD; in experiment [19], 0.063 OD; in experiment [21] it was 0.055 OD. The OD was found to be 0.068 OD in experiment [3]; 0.117 OD in [6]; 0.056 OD in experiment [8]; 0.052 OD in experiment [9]; 0.035 OD in experiment [11]; 0.069 OD in experiment [12]. The OD in experiment [14] worked out at 0.055 OD; in experiment [16] it was 0.22 OD; in experiment [18], 0.044 OD; in experiment [20] it was 0.056 OD; in experiment [22], 0.07 OD.
With 26E2 monoclonal antibody (HyTest), the OD 490 nm in experiment [1] stood at 0.032 OD; in experiment [2], 0.041 OD; in experiment [4] it was 0.031 OD; in [5], 0.022 OD; in experiment [7], 0.055 OD; in experiment [10], 0.034 OD. The OD 490 nm turned out to be 0.029 OD in [13]; 0.048 OD in experiment [15]; 0.035 OD in experiment [17]; 0.027 OD in experiment [19]; 0.032 OD in experiment [21]. Moreover, the OD in experiment [3] came out at 0.024 OD; in [6], 0.041 OD; in [8], 0.028 OD; in [9], 0.028 OD; in experiment [11], 0.028 OD; in [12], 0.031 OD. Moreover, the OD in experiment [14] was determined as 0.027 OD; in experiment [16] it was 0.158 OD; in experiment [18] it was 0.024 OD; in [20], 0.033 OD; in experiment [22] it was 0.024 OD.
50B7 monoclonal antibody (HyTest) registered an OD 490 nm in experiment [23] of 1.3 OD.
Take hinge 76 monoclonal antibody (Bio-Rad): in experiment [24], the Kd is 23.5 nM, the koff amounted to 0.00272 s⁻¹ and the kon came out at 117000 M⁻¹ s⁻¹. In experiment [25], the Kd amounted to 0.173 nM, the koff is 0.000194 s⁻¹ and the association rate constant (kon) was 1.12e+06 M⁻¹ s⁻¹.
In experiment [26], AGRKMDR [mutated epitope peptide A11GRKMDR17 (SEQ ID NO: 62)] displayed an IC50 (read off the curve) of 2 µg/mL.

Usually Kd stands for a measure of binding affinity in units of concentration. The koff is a measure of how fast the partners let go of each other. As usually defined, the kon is the second-order rate constant of association.
